From paper PMC9206387, “LILRB2-mediated TREM2 signaling inhibition suppresses microglia functions” (Molecular Neurodegeneration, 2022)

Molecular target: T1, oligomeric β-amyloid (1-42) (UniProt P05067 672-713)
T1 construct: the cut product β-amyloid (1-42) of the amyloid precursor protein; Oligomer; The methods of the direct BLI, reporter and BiFc assays name no label for oAβ; also called oAβ; Oligomer Aβ; source: bought: AnaSpec (lyophilized powder); HFIP-treated, dissolved in DMSO, oligomerised in DPBS at 37 °C overnight
Experiment: BLI; protein A sensor-captured Fc fusion proteins, oAβ at multiple concentrations, 1:1 binding model, KD calculated as kdis/kon
Details: both partners purified

Row | Kd [nM] | koff [s⁻¹] | Binder
1 | 69.3 | 0.000593 | LILRB2-Fc fusion protein (extracellular domain of LILRB2 fused to human IgG1 Fc) (Fc fusion, UniProt Q8N423 22-460, looked up, leukocyte immunoglobulin-like receptor subfamily B member 2 (LILRB2), extracellular domain (ECD) with four Ig-like domains; source: Expi 293 cells, purified (protein A agarose)) QTGTIPKPTLWAEPDSVITQGSPVTLSCQGSLEAQEYRLYREKKSASWITRIRPELVKNGQFHIPSITWEHTGRYGCQYYSRARWSELSDPLVLVMTGAYPKPTLSAQPSPVVTSGGRVTLQCESQVAFGGFILCKEGEDEHPQCLNSQPHARGSSRAIFSVGPVSPNRRWSHRCYGYDLNSPYVWSSPSDLLELLVPGVSKKPSLSVQPGPVMAPGESLTLQCVSDVGYDRFVLYKEGERDLRQLPGRQPQAGLSQANFTLGPVSRSYGGQYRCYGAHNLSSECSAPSDPLDILITGQIRGTPFISVQPGPTVASGENVTLLCQSWRQFHTFLLTKAGAADAPLRLRSIHEYPKYQAEFPMSPVTSAHAGTYRCYGSLNSDPYLLSHPSEPLELVVSGPSMGSSPPPTGPISTPGPEDQPLTPTGSDPQSGLGRHLGV
2 | 12.6 | 0.000123 | TREM2-Fc fusion protein (extracellular domain of TREM2 fused to human IgG1 Fc) (Fc fusion, UniProt Q9NZC2 19-174, looked up, triggering receptor expressed on myeloid cells 2 (TREM2), extracellular domain (ECD); source: Expi 293 cells, purified (protein A agarose)) HNTTVFQGVAGQSLQVSCPYDSMKHWGRRKAWCRQLGEKGPCQRVVSTHNLWLLSFLRRWNGSTAITDDTLGGTLTITLRNLQPHDAGLYQCQSLHGSEADTLRKVLVEVLADPLDHRDAGDLWFPGESESFEDAHVEHSISRSLLEGEIPFPPTS
